Data taken from the DeepSol protein solubility set.

Experiment: soluble on expression in E. coli; label from the status in PepcDB or PDB records

Sequence	soluble on expression in E. coli
SKDFMISAKGTFTYAKNQYMEIDEPDYEYAYMSQVGRPLNQYKGYIALGLFKDQEEIDNSPKQILTGVVQPGDIKYADLNNDGKIDGNDQTYIGNPELPQISYGLGVSIQYKKWDASIFFQGVGKRSIMLSDIHPFGGESYGVMQFVADNHWTEANPNPEAMYPRLTNGKNNNNNPNSTYWLRDGSYIRLKNVELGYSYKFLRAYISGQNLLTFSKFKLWDPELYTSNGLKYPTQIMGSIGLQFTF	not soluble
MGSDKIHHHHHHMSLKKQIPIIFENTHYFIVNKPPGIPSQPPDCRTWGRTHPNLDPTPLLERFKAIYYSHREVELCRTVHRLDHCVTGGMLIAKTKDGSVKFSRFLQKGGNNGYKLQRKYVAIVESSGRFNKPNNYEIKYGPKYNFLISHGGREITKFKEVDENCIVLQLVTGKKHQIRNHVSQILNQPILNDKRHGSTVNFPELFNDQIALHSACIITKIGLQTKTHLIPMEHNNTGQLWSRKYVNEEGEFTLPIKEVLLENWDQ	not soluble
MLALMDADGNIAWSGEYDEWGNQLNEENPHHLHQPYRLPGQQYDKESGLYYNRNRYYDPLQGRYITQDPIGLEGGWSLYAYPLNPVNGIDPLGLSPADVALIRRKDQLNHQRAWDILSDTYEDMKRLNLGGTDQFFHCMAFCRVSKLNDAGVSRSAKGLGYEKEIRDYGLNLFGMYGRKVKLSHSEMIEDNKKDLAVNDHGLTCPSTTDCSDRCSDYINPEHKKTIKALQDAGYLKLEHHHHHH	not soluble
MGSDKIHHHHHHMGVDPFERNKILGRGINIGNALEAPNEGDWGVVIKDEFFDIIKEAGFSHVRIPIRWSTHAYAFPPYKIMDRFFKRVDEVINGALKRGLAVVINIHHYEELMNDPEEHKERFLALWKQIADRYKDYPETLFFEILNEPHGNLTPEKWNELLEEALKVIRSIDKKHTIIIGTAEWGGISALEKLSVPKWEKNSIVTIHYYNPFEFTHQGAEWVEGSEKWLGRKWGSPDDQKHLIEEFNFIEEWSKKNKRPIYIGEFGAYRKADLESRIKWTSFVVREMEKRRWSWAYWEFCSGFGVYDTLRKTWNKDLLEALIGGDSIE	not soluble
MSRVPYGYEIIQLLEQLAPKQLAMEGDRIGLQIGTLNKPVKKVMIALDVLEDVVVEAIDQQVDLIIAHHPPLYRPLKQLLTDDGHGRMIAACIKHDIAVYAAHTNLDVADGGLNDWLAEALGLNDTAVLVPTYTEPLKKLVVYVPVTHAEVVRKALGDAGAGHIGRYSHCTFNSRGVGTFLPHEGARPFIGEQGRLEEVEEVRIETIVPASLEREAIQAMLAVHPYEEVAYDIYPLDNEGRRFGLGRIGRLPQPVTLGAFAEQVKTAFSVPAVRVVGRLDDLVQTVAVLGGDGNKFVAAAASAGADVYVTGDVYYHTAHDAQALGLHIIDPGHNVEKIMKEGVARYLITELSKRQWEAEVVASSVHTDPFQFV	not soluble
MGSDKIHHHHHHMKKFIVEPEFWELFPETKIGIVLAKNIDNSMESSAEIKKNLDEANENAEQFLEAAVFSENPVVSVWRKAYQKFKTKKGARSSIENLLKRVDKGKAVGSINPLVDIYNSISLNYGLPAGGEDIDTFAGNLRLTKAVGGEHFLALGDDEADNALPGEICYLDDEGAVCRSWNWRDGQRTMLTEQTKNAFLIIESVDPERGEVLDAATQKLAELSEKYLGGTAQVLLVTKENPEISLD	not soluble
MGSKRVCPDANNSVKSKKAKTLDFLAHPRRKIAIQFFYLGWEHDGLVQQPHTQNTVENHIMQALIKTHLIEDWTKCDFSRCGRTDKGVSAFKQTAAMVVRSLCPGDSGVFWSDSTQEHQKVDYKASGEELPYVKMLNGVLPKTIRVFAWAPVAQTFNARFDCNRRTYKYSFAKADLNLEKMRQGAELLVGEHDFSNFCQIDMNEKRLLQSYVRKVYEVKVEQVSTHPENDMYSMVELTVSGSGFLWHMIRYIVTILQEIGRENEQPSLISQLLDLKKYPSRPQYTLASDTPLCLFDCGYKSEDVEWKVHDYTLKSTVTGLQKTWATYQARSRMMENMLGELTGMAEFSSGDANKGLHEFVQDRPIPSNYIRFENRKMCESLESKKEKMAEKKKNGEESSDKL	not soluble
MEDPVFTFGLIADVQYADIEDGENYLRTRRRYYRGSADLLRDAVLQWRRERVQCVVQLGDIIDGHNRRRDASDRALDTVMAELDACSVDVHHVWGNHEFYNFSRPSLLSSRLNSAQRTGTDTGSDLIGDDIYAYEFSPAPNFRFVLLDAYDLSVIGREEESEKHTHSWRILTQHNHNLQDLNLPPVSVGLEQRFVKFNGGFSEQQLQWLDAVLTLSDHKQERVLIFSHLPVHPCAADPICLAWNHEAVLSVLRSHQSVLCFIAGHDHDGGRCTDSSGAQHITLEGVIETPPHSHAFATAYLYEDRMVMKGRGRVEDLTITYS	not soluble
MADYKVKDISLAEWGRKAIELAENEMPGLMELRREYGPSQPLKGAKIAGCLHMTVQTAVLIETLKALGAELRWSSCNIFSTQDNAAAAIAKTGVPVFAWKGETDEEYEWCIAQTVKGFSGDGLPNMILDDGGDLTNLVIDRYPELVPKIFGISEETTTGVKNLYKRLSKGNLPISAINVNDSVTKSKFDNLYGCRESLVDGIKRATDVMIAGKTCCVCGYGDVGKGCAAALRAFGARVVVTEVDPINALQASMEGYQVALVEDVMADAHIFVTTTGNDDIITSDHFPHMRDDAIVCNIGHFDTEIQVGWLEANAKEHVEIKPQVDRYTMENGRHIILLAKGRLVNLGCASGHPSFVMSNSFTNQVLAQIELWSNRDNGKYPRGDKAGVFFLPKALDEKVAALHLAHVGAKLTKLTPKQAEYINCPVNGPFKPDHYRY	soluble
MERMSDSADKPIDNDAEGVWSPDIEQSFQEALAIYPPCGRRKIILSDEGKMYGRNELIARYIKLRTGKTRTRKQVSSHIQVLARRKSRDFHSKLKDQTAKDKALQHMAAMSSAQIVSATAIHNKLGLPGIPRPTFPGGPGFWPGMIQTGQPGSSQDVKPFVQQAYPIQPAVTAPIPGFEPTSAPAPSVPAWQGRSIGTTKLRLVEFSAFLEQQRDPDSYNKHLFVHIGHANHSYSDPLLESVDIRQIYDKFPEKKGGLKELFGKGPQNAFFLVKFWADLNCNIQDDAGAFYGVSSQYESSENMTVTCSTKVCSFGKQVVEKVETEYARFENGRFVYRINRSPMCEYMINFIHKLKHLPEKYMMNSVLENFTILLVVTNRDTQETLLCMACVFEVSNSEHGAQHHIYRLVKD	soluble
MSLKWAHPIPFPETGCVLVATEKLDGYRTFARTVVLLLRAGTRHPQEGPFGVVINRPLHKNIKHMKSTKTELATTFSECSLYFGGPLEASMFLLKTGDKTKIPGFEEVMPGLNFGTRNSLDEAAVLVKKGVLKPQEFRFFVGYAGWQLDQLREEIESDYWHVAACSSDLICGASSENLWEEILQLMGGQYSELSRKPKLDIEGHHHHHH	soluble
MAAASAVSVLLVAAERNRWHRLPSLLLPPRTWVWRQRTMKYTTATGRNITKVLIANRGEIACRVMRTAKKLGVQTVAVYSEADRNSMHVDMADEAYSIGPAPSQQSYLSMEKIIQVAKTSAAQAIHPGCGFLSENMEFAELCKQEGIIFIGPPPSAIRDMGIKSTSKSIMAAAGVPVVEGYHGEDQSDQCLKEHARRIGYPVMIKAVRGGGGKGMRIVRSEQEFQEQLESAWREAKKSFNDDAMLIEKFVDTPRHVEVQVFGDHHGNAVYLFERDCSVQRRHQKIIEEAPAPGIKSEVRKKLGEAAVRAAKAVNYVGAGTVEFIMDSKHNFCFMEMNTRLQVEHPVTEMITGTDLVEWQLRIAAGEKIPLSQEEITLQGHAFEARIYAEDPSNNFMPVAGPLVHLSTPRADPSTRIETGVRQGDEVSVHYDPMIAKLVVWAADRQAALTKLRYSLRQYNIVGLPTNIDFLLNLSGHPEFEAGNVHTDFIPQHHKQLLLSRKAAAKESLCQAALGLILKEKAMTDTFTLQAHDQFSPFSSSSGRRLNISYTRNMTLKDGKNNVAIAVTYNHDGSYSMQIEDKTFQVLGNLYSEGDCTYLKCSVNGVASKAKLIILENTIYLFSKEGSIEIDIPVPKYLSSVSSQETQGGPLAPMTGTIEKVFVKAGDKVKAGDSLMVMIAMKMEHTIKSPKDGTVKKVFYREGAQANRHTPLVEFEEEESDKRESE	soluble
MGSDKIHHHHHHMSADIVFDRGSPSDIDEIKTFTSNTWKVGYYTDLYSKLADTGTMDDYVDKVIERWVNDGSVYVLRVSGRPVATIHMEKLPDGSVMLGGLRVHPEYRGSRLGMSIMQETIQFLRGKTERLRSAVYSWNEPSLRLVHRLGFHQVEEYPIYTFQGGSTAVPALKPVNERYAGRWRCFFIDWKYMCSDDPDIIHEEYSNNLIVDGSTFVYFDIYEGGIDLFVNDSDDASSFIEKYRSMNGRITFYVRKALANGLPYVPASSLTVWEYRY	not soluble
MGSDKIHHHHHHMSQIPVAEKLVGALSSGLAVLRYLAGMPTPVGVTRVARDLELNSSTCFNLLKTLVHEGLVTFDERTKTYTIGIGLVELAKGALDQASFARLLRPQLESIAQQHKVTATLWERTRNERVVLVDLADNPAAMRVHMSIGQRLPMYLAALGRCMAAYSELSADELRTRIESFRWENAPSFEEYYAEVQDVKERGYAVDNGNYVKGVTTVSAPVIDANKRAVMAISAVSFSAQLNRAAIRALGEDLGARAIEASRAISGRVRAA	not soluble
MFCVRCGSSDSELYEGLCRDCFLEDYSILRIPDRIEVRVCSHCRAKFISGQWLDEGLPDEEIVYRALEDSISWDEPVENPEIELEIMQERGTIYRCLVEVDAEVLGKRLSQEYEVEVRITNTVCPTCSKQSSGYYEAVIQLRADGRELAETEIETADRVVQRTLLKLSRRDKLAYLPQRVEVKEGVDYYIGSHKSARKVVDAIREKLGGITMESPRLMGQDKSTGKGLYRTWISLRLANFRVGDFLSHHNRILAVIDLRKKGVSVRDLETREVKNILWGEYEDMDVVGRADDVKTTTVTSRSPGMIQILHPETFEPVDLEADSYTSTLDIGEQVPVIEIDKRLYIIEDEAEELEHHHHHH	soluble
MSLNQTILNRVKTRVMHQLVSSLIYENIVVYKASYQDGVGHFTIEGHDSEYRFTAEKTHSFDRIRITSPIERVVGDEADTTTDYTQLLREVVFTFPKNDEKLEQFIVELLQTELKDTQSMQYRESNPPATPETFNDYEFYAMEGHQYHPSYKSRLGFTLSDNLKFGPDFVPNVKLQWLAIDKDKVETTVSRNVVVNEMLRQQVGDKTYEHFVQQIEASGKHVNDVEMIPVHPWQFEHVIQVDLAEERLNGTVLWLGESDELYHPQQSIRTMSPIDTTKYYLKVPISITNTSTKRVLAPHTIENAAQITDWLKQIQQQDMYLKDELKTVFLGEVLGQSYLNTQLSPYKQTQVYGALGVIWRENIYHMLIDEEDAIPFNALYASDKDGVPFIENWIKQYGSEAWTKQFLAVAIRPMIHMLYYHGIAFESHAQNMMLIHENGWPTRIALKDFHDGVRFKREHLSEAASHLTLKPMPEAHKKVNSNSFIETDDERLVRDFLHDAFFFINIAEIILFIEKQYGIDEELQWQWVKGIIEAYQEAFPELNNYQHFDLFEPTIQVEKLTTRRLLSDSELRIHHVTNPLGVGGINDATTISETEGHHHHHH	soluble
VSKAVQYMAKRRIGALIVFEKETGLQDYIETGIPMNSDISQELLTNVFIPNTPLHDGAMIIQGSKIAVAASYLPLSDSVKISKSLGTRHRAAVGISEVSDAFTVVVSEETGDISVTFDGKLRRDISKDVFEELLAEHWFGAHFQKKGVNS	not soluble
MLRLLLRHHFHCLLLCAVWATPCLASPWSTLTANQNPSPPWSKLTYSKPHDAATFYCPFLYPSPPRSPLQFSGFQQVSTGPECRNETLYLLYNREGQTLVERSSTWVKKVIWYLSGRNQTILQRMPQTASKPSDGNVQISVEDAKIFGAHMVPKQTKLLRFVVNDGTRYQMCVMKLESWAHVFRDYSVSFQVRLTFTEANNQTYTFCTHPNLIVLEHHHHHH	not soluble
